# Laboratory results as given in IntAct's records for PubMed 11956200.
# B1: Mitochondrial import inner membrane translocase subunit Tim8 A (Homo sapiens), O60220 (parent)
# chain: MDSSSSSSAAGLGAVDPQLQHFIEVETQKQRFQQLVHQMTELCWEKCMDKPGPKLDSRAEACFVNCVERFIDTSQFILNRLEQTQKSKPVFSESLSD
# partner: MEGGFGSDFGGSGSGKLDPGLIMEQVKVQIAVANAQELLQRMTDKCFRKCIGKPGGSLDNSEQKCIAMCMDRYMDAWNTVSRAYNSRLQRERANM
# Variants of: B1
# Conditions: with tim13_human TIMM13, Q9Y5L4
row,effect of a mutation on the interaction,Variant
1,disrupting interaction strength,C66W
